Data published in IntAct's records for PubMed 29892012.

B1: Glutaredoxin-3 (Homo sapiens), O76003 (parent)
chain: MAAGAAEAAVAAVEEVGSAGQFEELLRLKAKSLLVVHFWAPWAPQCAQMNEVMAELAKELPQVSFVKLEAEGVPEVSEKYEISSVPTFLFFKNSQKIDRLDGAHAPELTKKVQRHASSGSFLPSANEHLKEDLNLRLKKLTHAAPCMLFMKGTPQEPRCGFSKQMVEILHKHNIQFSSFDIFSDEEVRQGLKAYSSWPTYPQLYVSGELIGGLDIIKELEASEELDTICPKAPKLEERLKVLTNKASVMLFMKGNKQEAKCGFSKQILEILNSTGVEYETFDILEDEEVRQGLKAYSNWPTYPQLYVKGELVGGLDIVKELKENGELLPILRGEN
partner: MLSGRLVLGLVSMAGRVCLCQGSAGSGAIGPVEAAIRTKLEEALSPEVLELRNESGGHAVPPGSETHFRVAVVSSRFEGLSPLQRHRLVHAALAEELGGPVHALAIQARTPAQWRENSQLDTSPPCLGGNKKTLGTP
B2: Coiled-coil alpha-helical rod protein 1 (Homo sapiens), Q8TD31 (parent)
chain: MFPPSGSTGLIPPSHFQARPLSTLPRMAPTWLSDIPLVQPPGHQDVSERRLDTQRPQVTMWERDVSSDRQEPGRRGRSWGLEGSQALSQQAEVIVRQLQELRRLEEEVRLLRETSLQQKMRLEAQAMELEALARAEKAGRAEAEGLRAALAGAEVVRKNLEEGSQRELEEVQRLHQEQLSSLTQAHEEALSSLTSKAEGLEKSLSSLETRRAGEAKELAEAQREAELLRKQLSKTQEDLEAQVTLVENLRKYVGEQVPSEVHSQTWELERQKLLETMQHLQEDRDSLHATAELLQVRVQSLTHILALQEEELTRKVQPSDSLEPEFTRKCQSLLNRWREKVFALMVQLKAQELEHSDSVKQLKGQVASLQEKVTSQSQEQAILQRSLQDKAAEVEVERMGAKGLQLELSRAQEARRRWQQQTASAEEQLRLVVNAVSSSQIWLETTMAKVEGAAAQLPSLNNRLSYAVRKVHTIRGLIARKLALAQLRQESCPLPPPVTDVSLELQQLREERNRLDAELQLSARLIQQEVGRAREQGEAERQQLSKVAQQLEQELQQTQESLASLGLQLEVARQGQQESTEEAASLRQELTQQQELYGQALQEKVAEVETRLREQLSDTERRLNEARREHAKAVVSLRQIQRRAAQEKERSQELRRLQEEARKEEGQRLARRLQELERDKNLMLATLQQEGLLSRYKQQRLLTVLPSLLDKKKSVVSSPRPPECSASAPVAAAVPTRESIKGSLSVLLDDLQDLSEAISKEEAVCQGDNLDRCSSSNPQMSS
partner: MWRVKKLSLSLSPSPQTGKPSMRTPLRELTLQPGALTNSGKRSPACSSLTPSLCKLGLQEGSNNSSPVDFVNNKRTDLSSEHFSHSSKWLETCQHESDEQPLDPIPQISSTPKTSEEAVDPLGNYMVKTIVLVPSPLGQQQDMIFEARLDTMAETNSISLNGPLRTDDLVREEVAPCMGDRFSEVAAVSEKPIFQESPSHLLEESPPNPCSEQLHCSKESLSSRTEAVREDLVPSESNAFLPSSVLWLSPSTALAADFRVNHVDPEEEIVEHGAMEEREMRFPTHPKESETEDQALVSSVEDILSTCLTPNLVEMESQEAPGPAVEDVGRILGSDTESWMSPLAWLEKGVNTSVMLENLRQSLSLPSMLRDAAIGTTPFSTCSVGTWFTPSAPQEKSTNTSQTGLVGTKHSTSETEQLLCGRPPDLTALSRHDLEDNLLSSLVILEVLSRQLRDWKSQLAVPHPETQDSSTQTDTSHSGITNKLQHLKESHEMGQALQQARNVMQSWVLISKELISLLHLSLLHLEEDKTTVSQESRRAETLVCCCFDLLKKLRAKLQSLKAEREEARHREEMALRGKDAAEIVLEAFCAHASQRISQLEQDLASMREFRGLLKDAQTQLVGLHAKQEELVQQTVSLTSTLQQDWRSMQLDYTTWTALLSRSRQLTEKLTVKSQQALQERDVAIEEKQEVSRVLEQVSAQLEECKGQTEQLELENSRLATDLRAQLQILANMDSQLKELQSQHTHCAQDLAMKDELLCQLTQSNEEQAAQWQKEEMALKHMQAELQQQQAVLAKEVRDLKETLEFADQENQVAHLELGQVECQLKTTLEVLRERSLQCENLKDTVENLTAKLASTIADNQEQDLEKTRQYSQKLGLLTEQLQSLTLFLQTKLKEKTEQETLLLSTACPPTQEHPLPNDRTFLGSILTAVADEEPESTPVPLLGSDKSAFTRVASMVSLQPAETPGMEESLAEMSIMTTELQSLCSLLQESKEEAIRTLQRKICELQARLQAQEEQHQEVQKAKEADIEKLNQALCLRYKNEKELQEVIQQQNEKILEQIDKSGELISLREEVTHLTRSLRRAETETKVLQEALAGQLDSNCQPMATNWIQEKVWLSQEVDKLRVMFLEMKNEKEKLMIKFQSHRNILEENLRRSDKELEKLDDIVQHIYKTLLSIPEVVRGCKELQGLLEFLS
B3: E3 ubiquitin-protein ligase LNX (Homo sapiens), Q8TBB1 (parent)
chain: MNQPESANDPEPLCAVCGQAHSLEENHFYSYPEEVDDDLICHICLQALLDPLDTPCGHTYCTLCLTNFLVEKDFCPMDRKPLVLQHCKKSSILVNKLLNKLLVTCPFREHCTQVLQRCDLEHHFQTSCKGASHYGLTKDRKRRSQDGCPDGCASLTATAPSPEVSAAATISLMTDEPGLDNPAYVSSAEDGQPAISPVDSGRSNRTRARPFERSTIRSRSFKKINRALSVLRRTKSGSAVANHADQGRENSENTTAPEVFPRLYHLIPDGEITSIKINRVDPSESLSIRLVGGSETPLVHIIIQHIYRDGVIARDGRLLPGDIILKVNGMDISNVPHNYAVRLLRQPCQVLWLTVMREQKFRSRNNGQAPDAYRPRDDSFHVILNKSSPEEQLGIKLVRKVDEPGVFIFNVLDGGVAYRHGQLEENDRVLAINGHDLRYGSPESAAHLIQASERRVHLVVSRQVRQRSPDIFQEAGWNSNGSWSPGPGERSNTPKPLHPTITCHEKVVNIQKDPGESLGMTVAGGASHREWDLPIYVISVEPGGVISRDGRIKTGDILLNVDGVELTEVSRSEAVALLKRTSSSIVLKALEVKEYEPQEDCSSPAALDSNHNMAPPSDWSPSWVMWLELPRCLYNCKDIVLRRNTAGSLGFCIVGGYEEYNGNKPFFIKSIVEGTPAYNDGRIRCGDILLAVNGRSTSGMIHACLARLLKELKGRITLTIVSWPGTFL
partner: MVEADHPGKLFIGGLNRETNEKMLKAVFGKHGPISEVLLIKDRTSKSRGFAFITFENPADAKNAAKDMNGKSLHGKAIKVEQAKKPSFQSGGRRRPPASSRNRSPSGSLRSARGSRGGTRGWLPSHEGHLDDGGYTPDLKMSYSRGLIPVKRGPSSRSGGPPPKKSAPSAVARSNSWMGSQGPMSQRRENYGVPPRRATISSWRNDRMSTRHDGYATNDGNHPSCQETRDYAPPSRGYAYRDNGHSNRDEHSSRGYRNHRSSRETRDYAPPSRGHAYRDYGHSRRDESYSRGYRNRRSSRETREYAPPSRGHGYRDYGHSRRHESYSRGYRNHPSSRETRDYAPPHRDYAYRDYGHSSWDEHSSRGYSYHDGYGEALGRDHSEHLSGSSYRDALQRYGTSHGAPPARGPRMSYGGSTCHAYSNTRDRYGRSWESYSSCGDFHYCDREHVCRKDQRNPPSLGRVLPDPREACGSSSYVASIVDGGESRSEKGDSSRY
B4: Coiled-coil alpha-helical rod protein 1 (Homo sapiens), Q8TD31 (parent)
chain: B2 chain
partner: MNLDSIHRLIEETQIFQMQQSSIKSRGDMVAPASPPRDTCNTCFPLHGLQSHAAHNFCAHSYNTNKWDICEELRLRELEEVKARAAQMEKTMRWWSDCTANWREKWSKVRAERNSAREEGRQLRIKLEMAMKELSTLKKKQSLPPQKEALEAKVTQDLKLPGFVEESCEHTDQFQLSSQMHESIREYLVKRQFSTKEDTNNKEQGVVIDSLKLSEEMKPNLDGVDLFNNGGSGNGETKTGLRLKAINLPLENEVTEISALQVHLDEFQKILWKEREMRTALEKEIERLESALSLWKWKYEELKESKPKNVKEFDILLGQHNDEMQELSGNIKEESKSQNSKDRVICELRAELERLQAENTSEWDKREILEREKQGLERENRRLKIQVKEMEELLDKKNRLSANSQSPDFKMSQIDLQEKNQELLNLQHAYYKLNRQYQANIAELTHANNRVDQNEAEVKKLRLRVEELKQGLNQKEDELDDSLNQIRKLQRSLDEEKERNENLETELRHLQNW
B5: Atos homolog protein B (Homo sapiens), Q7L5A3 (parent)
chain: MRHVQAEPSPSSEPEAGPSQPPVRQGALQGGLLMGYSPAGGATSPGVYQVSIFSPPAGTSEPHRALKRQAPSTEGPRELKRGPGLGAREGLPPEEPSTVGLLGPEGPGLGLGVASQHFSHRGLCVVEQRSSVTSSWTSGAWSPPCPPSNASCNTLHTRDWASPDPGGQGSLGESPGPAPPGQLHTLDTDLHSLAQIGGKSPVAGVGNGGSLWPRESPGTANGHSPEHTPPGPGPPGPCPTKRRLLPAGEAPDVSSEEEGPAPRRRRGSLGHPTAANSSDAKATPFWSHLLPGPKEPVLDPTDCGPMGRRLKGARRLKLSPLRSLRKGPGLLSPPSASPVPTPAVSRTLLGNFEESLLRGRFAPSGHIEGFTAEIGASGSYCPQHVTLPVTVTFFDVSEQNAPAPFLGIVDLNPLGRKGYSVPKVGTVQVTLFNPNQTVVKMFLVTFDFSDMPAAHMTFLRHRLFLVPVGEEGNANPTHRLLCYLLHLRFRSSRSGRLSLHGDIRLLFSRRSLELDTGLPYELQAVTEAPHNPRYSPLP
partner: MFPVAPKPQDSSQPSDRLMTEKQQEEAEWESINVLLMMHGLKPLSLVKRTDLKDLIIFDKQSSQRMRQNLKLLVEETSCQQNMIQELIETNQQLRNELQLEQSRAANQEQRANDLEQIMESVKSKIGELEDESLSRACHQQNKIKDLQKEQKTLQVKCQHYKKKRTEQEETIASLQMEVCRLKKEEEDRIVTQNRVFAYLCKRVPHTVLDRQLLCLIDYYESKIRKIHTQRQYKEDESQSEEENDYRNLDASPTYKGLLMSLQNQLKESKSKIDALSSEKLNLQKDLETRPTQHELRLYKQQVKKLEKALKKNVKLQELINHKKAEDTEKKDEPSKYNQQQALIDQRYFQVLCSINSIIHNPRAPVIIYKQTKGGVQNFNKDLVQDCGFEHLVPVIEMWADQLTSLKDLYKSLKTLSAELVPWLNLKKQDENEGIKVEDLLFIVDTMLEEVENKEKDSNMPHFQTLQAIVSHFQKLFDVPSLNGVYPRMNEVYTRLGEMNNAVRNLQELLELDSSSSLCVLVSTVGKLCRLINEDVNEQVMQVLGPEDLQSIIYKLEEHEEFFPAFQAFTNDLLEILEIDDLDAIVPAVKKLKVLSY

Variants of: B1
Conditions: with bola1_human BOLA1, Q9Y3E2

P145A was tested. Which “effect of a mutation on the interaction” value did it give?
Its value is “with no effect”.

Variants of: B2
Conditions: with spag5_human SPAG5, Q96R06

W337R was tested. Which “effect of a mutation on the interaction” value did it give?
The value was “disrupting interaction strength”.

Variants of: B3
Conditions: with rby1a_human RBMY1A1, P0DJD3

E295K was tested. Which “effect of a mutation on the interaction” value did it give?
The value was “disrupting interaction strength”.

Variants of: B4
Conditions: with CCDC102B

W337R was tested. Which “effect of a mutation on the interaction” value did it give?
Its value is “disrupting interaction strength”.

Variants of: B5
Conditions: with cep70_human CEP70, Q8NHQ1

How did the “effect of a mutation on the interaction” value turn out when C381Y was run?
The value was “disrupting interaction strength”.
